US9790262B2, “Compositions comprising glucagon analogs and methods of making and using the same” (LONGEVITY BIOTECH, INC., priority 2011, dated 2017)
Non-standard residues stand in square brackets, D forms with d. No end group written: not given here. APC = 3-aminopyrrolidine-4-carboxylic acid (cyclic beta amino acid); ACPC = 2-aminocyclopentanecarboxylic acid (cyclic beta amino acid); Aib = CC(C)(N)C(=O)O

T1: GIP receptor (GIPR) (Homo sapiens, UniProt P48546)
T1 sequence (P48546 22-466): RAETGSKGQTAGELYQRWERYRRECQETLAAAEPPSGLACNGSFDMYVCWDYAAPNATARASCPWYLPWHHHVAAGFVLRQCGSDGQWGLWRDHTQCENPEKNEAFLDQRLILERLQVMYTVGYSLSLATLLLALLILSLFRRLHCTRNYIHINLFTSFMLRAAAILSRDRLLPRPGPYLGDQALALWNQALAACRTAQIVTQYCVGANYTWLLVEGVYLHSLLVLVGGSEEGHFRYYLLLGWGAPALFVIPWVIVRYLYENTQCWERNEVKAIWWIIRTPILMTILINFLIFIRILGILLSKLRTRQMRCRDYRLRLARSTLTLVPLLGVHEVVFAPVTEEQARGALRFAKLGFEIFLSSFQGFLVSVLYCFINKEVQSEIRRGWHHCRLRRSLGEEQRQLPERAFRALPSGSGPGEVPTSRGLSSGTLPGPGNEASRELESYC

T2: GIP receptor (UniProt P48546 22-466, limits assumed)
T2 sequence (looked up): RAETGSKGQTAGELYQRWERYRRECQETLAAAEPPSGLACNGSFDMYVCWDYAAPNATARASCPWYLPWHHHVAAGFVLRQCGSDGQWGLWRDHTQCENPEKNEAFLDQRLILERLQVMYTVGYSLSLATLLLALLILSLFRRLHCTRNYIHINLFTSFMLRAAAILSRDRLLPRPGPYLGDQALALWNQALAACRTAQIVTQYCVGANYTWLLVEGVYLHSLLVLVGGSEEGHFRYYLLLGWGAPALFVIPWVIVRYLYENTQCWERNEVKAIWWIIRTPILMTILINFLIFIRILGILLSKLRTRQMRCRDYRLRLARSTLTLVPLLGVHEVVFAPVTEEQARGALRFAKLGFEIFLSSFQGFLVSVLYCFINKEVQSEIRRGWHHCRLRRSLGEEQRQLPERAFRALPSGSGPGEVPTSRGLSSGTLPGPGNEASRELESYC


Experiments:
[1] = Stability in human plasma; type: in vitro ADME
Procedure: Studies of the 2010 peptide were carried out in human plasma. All plasma was obtained from Bioreclamation and collected on sodium heparin. DMSO stocks were first prepared for the test compounds. Aliquots of the DMSO solutions were dosed into 1 mL of plasma, which had been pre-warmed to 37° C., at a final test compound concentration of 1 μM. The vials were kept in a benchtop Thermomixer® for the duration of the experiment. Aliquots (100 μL) were taken at each timepoint (0, 15, 30, 60, and 120 minutes) and added to 96-well plates which had been pre-filled with 300 μL of acetonitrile. Samples were stored at 4° C. until the end of the experiment. After the final timepoint was sampled, the plate was mixed and then centrifuged at 3,000 rpm for 10 minutes. Aliquots of the supernatant were removed, diluted 1:1 into distilled water, and analyzed by LC-MS/MS.
Below is a table of data describing the stability of compounds exposed to human plasma with aliquot of compound dissolved in DMSO solution at 37° C. The pH of the plasma solution was adjusted to 7.4 and single replicants of aliquot were taken at 0, 15, 30, 60 and 120 minutes. LC-MS/MS was used to determine the percent mass of compound remaining in solution (% remaining).

[2] = Stability in human liver microsomes; conditions: for % of mass remaining in solution: 0.5 mg/mL human liver microsomes, 1 μM, 1 mM NADPH, 37° C.
Procedure: Human liver microsomes were prepared by Absorption Systems. A reaction mixture, minus NADPH, was prepared as described below. […] In parallel, a […]. The test compound was added into the reaction mixture (0.5 mg/mL human liver microsomes; 100 mM potassium phosphate; 5 mM Magnesium chloride) at a final concentration of 1 μM. An aliquot of the reaction mixture (without cofactor) was incubated in a shaking water bath at 37° C. for 3 minutes. […] The samples were then mixed and centrifuged to precipitate microsomal proteins. […] A thermo BDS Hypersil C18 column (30×2.0 mm; 3 μm) was used for chromatography at 300 μL/minute with an aqueous reservoir of 90% water and 10% buffer and an organic reservoir of 90% acetonitrile with 10% buffer (each 25 mM ammonium formate buffer at pH of 3.5). Test compound samples were analyzed by orbitrap. The peak area response ratio to internal standard (PARR) of the compounds at 10, 20, 30, and 60 minutes was compared to the PARR at time 0 to determine the percent of test compound remaining at each timepoint. After the final time point, fluorimetry is used to confirm the addition of NADPH to the reaction mixture. Half-life was normalized of control using internal acceptance criteria.
The mass spectrometry measurements of compound were taken at 0, 10, 20, 30, and 60 minutes after incubation of the compound with human liver microsomes at […] in solution at 37° C.
Intrinsic clearance (CLint) was calculated based upon CLint=k/P, where k is the elimination rate constant and P is the protein concentration in the incubation.

GIP receptor (GIPR) = target: T1, GIP receptor (GIPR); assay: cAMP Hunter agonist assay (DiscoveRx HitHunter cAMP XS+), GIPR cells; type: cell-based; conditions: read-out: Max Response
Procedure: Once it was established that the cells were healthy and growing normally, cells were passaged from flasks using cell dissociation reagent buffer and seeded into white walled clear bottom 384-well microplates for compound profiling. For profiling, cells were seeded at a density of 10,000 cells per well in a total volume of 20 μL and were allowed to adhere and recover overnight prior to compound addition. cAMP modulation was determined using the DiscoveRx HitHunter cAMP XS+ assay.
For profiling compound in agonist mode, the cells were incubated in the presence of compound at 37° C. for 30 minutes. […] After appropriate compound incubation, assay signal was generated through incubation with DiscoverX lysis cocktail according to the manufacturers standard protocol. Dose curves were plotted using GraphPad Prism or Activity Base. Percentage activity is calculated using the following formula: % Activity=100%×(mean RLU of test sample−mean RLU of vehicle control)/(mean RLU of MAX control−mean RLU of vehicle control).

GIP receptor = target: T2, GIP receptor; assay: cell-based or functional assay
GLP-1 receptor = GLP-1 receptor (UniProt P43220 24-463, limits assumed); assay: cell-based or functional assay

| Molecule | cAMP agonist: Max Response (GIP receptor) [%] | cAMP agonist: Max Response (GLP-1 receptor) [%] | cAMP agonist: Curve Bottom (GIP receptor) [%] | cAMP agonist: Curve Top (GIP receptor) [%] | cAMP agonist: Curve Bottom (GLP-1 receptor) [%] | cAMP agonist: Curve Top (GLP-1 receptor) [%] | other results |
| --- | --- | --- | --- | --- | --- | --- | --- |
| CC[C@H](C)[C@H](NC(=O)[C@H](CO)NC(=O)[C@H](Cc1ccc(O)cc1)NC(=O)[C@H](CC(=O)O)NC(=O)[C@H](CO)NC(=O)[C@@H](NC(=O)[C@H](Cc1ccccc1)NC(=O)[C@@H](NC(=O)CNC(=O)[C@H](CCC(=O)O)NC(=O)C(C)(C)NC(=O)[C@@H](N)Cc1ccc(O)cc1)[C@@H](C)O)[C@@H](C)O)C(=O)N[C@@H](Cc1ccc(O)cc1)C(=O)N[C@@H](CC(C)C)C(=O)N[C@@H](CC(=O)O)C(=O)N[C@@H](CCCCN)C(=O)N[C@@H](CCC(N)=O)C(=O)N[C@@H](C)C(=O)N[C@@H](C)C(=O)NC(C)(C)C(=O)N[C@@H](CCC(=O)O)C(=O)N[C@@H](Cc1ccccc1)C(=O)N[C@H](C(=O)N[C@@H](CC(N)=O)C(=O)N[C@@H](Cc1c[nH]c2ccccc12)C(=O)N[C@@H](CC(C)C)C(=O)N[C@@H](CC(C)C)C(=O)N[C@@H](C)C(=O)NCC(N)=O)C(C)C [compound 2000, YBEGT FTSDY SIYLD KQAAB EFVNW LLAG] | – | – | – | – | – | – | % of mass remaining in solution ([1]; 0 mins., 1 μM, 37° C., pH 7.4): 100%; remaining at 0.25 h, 1 μM ([1]; plasma (sodium heparin), 15 mins., 1 μM, 37° C., pH 7.4, read-out: % of mass remaining in solution): 101%; remaining at 0.5 h, 1 μM ([1]; plasma (sodium heparin), 30 mins., 1 μM, 37° C., pH 7.4, read-out: % of mass remaining in solution): 99%; remaining at 1 h, 1 μM ([1]; plasma (sodium heparin), 60 mins., 1 μM, 37° C., pH 7.4, read-out: % of mass remaining in solution): 95%; remaining at 2 h, 1 μM ([1]; plasma (sodium heparin), 120 mins., 1 μM, 37° C., pH 7.4, read-out: % of mass remaining in solution): 98%; half-life ([1]; read-out: serum-half lives): > 120 min; % of mass remaining in solution ([2]; 0 mins.): 100%; half-life ([2]; human, microsomes): 58 min; microsomal CLint ([2]; human, microsomes): 24 µL/min/mg; remaining at 10 min, 1 μM ([2]; human, microsomes): 95%; remaining at 20 min, 1 μM ([2]; human, microsomes): 78%; remaining at 0.5 h, 1 μM ([2]; human, microsomes): 72%; remaining at 1 h, 1 μM ([2]; human, microsomes): 50% |
| CC[C@H](C)[C@H](NC(=O)[C@H](Cc1ccccc1)NC(=O)[C@H](CCC(=O)O)NC(=O)[C@H](CCCCN)NC(=O)[C@H](C)NC(=O)[C@H](C)NC(=O)[C@H](CCC(N)=O)NC(=O)CNC(=O)[C@H](CCC(=O)O)NC(=O)[C@H](CC(C)C)NC(=O)[C@H](Cc1ccc(O)cc1)NC(=O)[C@H](CO)NC(=O)[C@H](CO)NC(=O)[C@@H](NC(=O)[C@H](CC(=O)O)NC(=O)[C@H](CO)NC(=O)[C@@H](NC(=O)[C@H](Cc1ccccc1)NC(=O)[C@@H](NC(=O)CNC(=O)[C@H](CCC(=O)O)NC(=O)[C@H](C)NC(=O)[C@@H](N)Cc1c[nH]cn1)[C@@H](C)O)[C@@H](C)O)C(C)C)C(=O)N[C@@H](C)C(=O)N[C@@H](Cc1c[nH]c2ccccc12)C(=O)N[C@@H](CC(C)C)C(=O)N[C@H](C(=O)N[C@@H](CCCCN)C(=O)NCC(=O)N[C@@H](CCCNC(=N)N)C(N)=O)C(C)C [GLP1] | – | – | – | – | – | – | Emax (GIP receptor (GIPR)): 2.66% |
| wild-type GLP-1 (from UniProt P01275 92-128) (ligand) | 2.66 | – | – | – | – | – | – |
| C[C@]12CC[C@H]3[C@@H](CCC4=CC(=O)CC[C@@]43C)[C@@H]1CC[C@@H]2O [Testosterone, testosterone] | – | – | – | – | – | – | % of mass remaining in solution ([2]; 0 mins.): 100%; % of mass remaining in solution ([2]; 60 mins.): 4.8%; remaining at 10 min, 1 μM ([2]; human, microsomes): 53%; remaining at 0.5 h, 1 μM ([2]; human, microsomes): 13% |
| YXEGTFTSDYSXYLDXQAXXEFXNWXLAG (B = alpha-aminoisobutyric acid (Aib) at positions 2 and 20; alpha-to-beta3 amino acid replacement(s) at the bold and underlined position(s) of the printed sequence, which this text does not show) [2001] | 16.5 | 36.7 | – | – | – | – | cAMP agonist EC50 (RC50 (uM)) (GIP receptor): > 1 µM; cAMP agonist EC50 (RC50 (uM)) (GLP-1 receptor): > 1 µM |
| Y[Aib]EGTFTSDYSIYLD[APC]QA[ACPC][Aib]EF[ACPC]NW[ACPC]LAG [2008] | 82.2 | 84.5 | -0.6 | 82.8 | 0.9 | 84.4 | – |
| YXEGTFTSDYSXYLXKQAXXEXVNWXLAX (B = alpha-aminoisobutyric acid (Aib) at positions 2 and 20; alpha-to-beta3 amino acid replacement(s) at the bold and underlined position(s) of the printed sequence, which this text does not show) [2004] | 99.1 | 2.68 | -0.8 | 99.1 | – | – | cAMP agonist EC50 (RC50 (uM)) (GLP-1 receptor): > 1 µM |
| Y[Aib]EGTFTSDYSIYLDK[ACPC]AA[Aib][ACPC]FV[APC]WLL[ACPC]G [2010] | 96.9 | 82.1 | -0.3 | 85.5 | 0.4 | 82.4 | – |
| YXEGTFTSDYSIYXDKXAAXXFVXWLLXG (B = alpha-aminoisobutyric acid (Aib) at positions 2 and 20; alpha-to-beta3 amino acid replacement(s) at the bold and underlined position(s) of the printed sequence, which this text does not show) [2005] | 99.2 | 95.7 | -2.6 | 96.3 | 1.3 | 91.1 | – |
